Source: article PMC5182127, “Cellular and viral peptides bind multiple sites on the N‐terminal domain of clathrin” (Traffic (Copenhagen, Denmark), 2016)
Positions count from the first letter of the chain named. Names may count otherwise.

T1: clathrin heavy chain N‐terminal domain (1‐363) (bovine, UniProt P49951 1-363)
T1 construct: also called NTD; clathrin NTD; source: E. coli BL21(DE3) pLysS, purified (glutathione Sepharose, thrombin cleavage, Superdex 200); not shown: GST, N-terminal, cleaved
T1 sequence (looked up): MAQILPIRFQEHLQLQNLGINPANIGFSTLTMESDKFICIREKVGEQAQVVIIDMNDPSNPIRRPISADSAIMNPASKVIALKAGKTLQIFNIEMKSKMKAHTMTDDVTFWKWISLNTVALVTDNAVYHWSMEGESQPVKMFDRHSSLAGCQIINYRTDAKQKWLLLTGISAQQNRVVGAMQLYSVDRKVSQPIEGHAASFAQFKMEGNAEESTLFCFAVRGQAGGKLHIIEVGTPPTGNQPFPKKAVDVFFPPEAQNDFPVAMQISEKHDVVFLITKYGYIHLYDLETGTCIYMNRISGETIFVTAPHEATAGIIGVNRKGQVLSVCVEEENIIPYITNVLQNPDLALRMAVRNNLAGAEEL

T2: GST‐AP2CBM (human, UniProt P63010 629-640)
T2 construct: also called CBM from flexible hinge of β2 adaptin subunit of human AP2; source: E. coli BL21(DE3) pLysS, purified (glutathione resin, SEC); not shown: GST, N-terminal, kept
T2 chain (looked up): GDLLNLDLGPPV

T3: GST‐AP2arrS (human, UniProt P63010 623-632)
T3 construct: also called extended arrestin motif (LLGDLL); source: E. coli BL21(DE3) pLysS, purified (glutathione resin, SEC); not shown: GST, N-terminal, kept
T3 chain (looked up): SQGDLLGDLL

T4: GST‐Amph4T1 (rat, UniProt O08838 349-356)
T4 construct: also called extended amphiphysin CBM construct; source: E. coli BL21(DE3) pLysS, purified (glutathione resin, SEC)
T4 chain: ETLLDLDFLERPHRD

T5: GST‐AmphCBM (human, UniProt P49418 349-358)
T5 construct: also called human amphiphysin I CBM; source: E. coli BL21(DE3) pLysS, purified (glutathione resin, SEC); not shown: GST, N-terminal, kept
T5 chain (looked up): ETLLDLDFDP

B1: HDAg‐L1pep (peptide)
peptide: SDILFPADS
notes: also called peptide of the putative CBM of HDAg-L1; source: synthetic peptide, bought: Designer Bioscience
B2: Amph4T1pep (peptide)
peptide: ETLLDLDFLE
notes: source: synthetic peptide, bought: Genscript
B3: AP2CBMpep (peptide)
peptide: CGDLLNLDLG
notes: also called peptide of the β2 adaptin CBM; source: synthetic peptide, bought: Designer Bioscience
B4: HDAg‐L2pep (peptide)
peptide: SPRLPLLES
notes: also called peptide of the putative CBM of HDAg-L2; source: synthetic peptide, bought: Designer Bioscience
B5: AmphCBMpep (peptide)
peptide: ETLLDLDFDP
notes: also called peptide of the amphiphysin CBM; source: synthetic peptide, bought: Genscript
B6: AmphCBMlongpep (peptide)
peptide: ETLLDLDFDPFK
notes: as for B2
B7: His‐NTD‐NEMO Q89A + F91K (other, UniProt P49951 1-363, looked up)
chain: MAQILPIRFQEHLQLQNLGINPANIGFSTLTMESDKFICIREKVGEQAQVVIIDMNDPSNPIRRPISADSAIMNPASKVIALKAGKTLAIKNIEMKSKMKAHTMTDDVTFWKWISLNTVALVTDNAVYHWSMEGESQPVKMFDRHSSLAGCQIINYRTDAKQKWLLLTGISAQQNRVVGAMQLYSVDRKVSQPIEGHAASFAQFKMEGNAEESTLFCFAVRGQAGGKLHIIEVGTPPTGNQPFPKKAVDVFFPPEAQNDFPVAMQISEKHDVVFLITKYGYIHLYDLETGTCIYMNRISGETIFVTAPHEATAGIIGVNRKGQVLSVCVEEENIIPYITNVLQNPDLALRMAVRNNLAGAEELKSSVVGSERKRGMQLEDLKQQLQQAEEALVAKQEVIDKLKEEAEQHKIVMETVPVLKAQADIYKADFQAERQAREKLAEKKELLQEQLEQLQREYSKLKASCQESARIEDMRKRHVEVSQ
notes: also called clathrin box mutant; not shown: His6, N-terminal, kept
B8: His‐NTD‐NEMO Q192Y (other, UniProt P49951 1-363, looked up)
chain: B7 chain with A89Q, K91F, Q192Y
notes: also called arrestin box mutant; not shown: His6, N-terminal, kept
B9: His‐NTD‐NEMO Q89A + F91K + F9W (other, UniProt P49951 1-363, looked up)
chain: B7 chain with F9W
notes: also called mutant with disrupted clathrin and Royle boxes; printed in the text as Q98A + F91K + F9W; not shown: His6, N-terminal, kept
B10: His‐NTD‐NEMO Q89A + F91K + Q192Y (other, UniProt P49951 1-363, looked up)
chain: B7 chain with Q192Y
notes: also called His‐NTD‐NEMO mutated at both the clathrin and arrestin boxes; not shown: His6, N-terminal, kept

Biological target: T1, clathrin heavy chain N‐terminal domain …
Assay: crystal structure; co-crystals of NTD (14 or 20 mg/mL) with 3.4-3.6 mM peptide, sitting drop, 20°C, sodium malonate; peptide also in the cryoprotectant
Settings: both partners purified

Row | Binder | binding result
1 | B1 | binds
2 | B2 | binds
3 | B3 | binds
4 | B4 | binds
5 | B5 | binds
6 | B6 | binds

Biological target: T2, GST‐AP2CBM
Assay: pull-down; 500 µg GST or GST-peptide bait on glutathione sepharose 4B; 0.1 mg/mL wild-type or mutant His-NTD-NEMO as prey, 2 h, 4°C; 25 mM HEPES-KOH, 125 mM potassium acetate, 5 mM magnesium acetate, 2 mM EDTA, 2 mM EGTA, 1 mM DTT, pH 7.2; washes with PBS; immunoblot with anti-clathrin NTD antibody
Settings: both partners purified

Row | Binder | binding result
7 | B7 | binds
8 | B8 | binds
9 | B9 | binds

Biological target: T3, GST‐AP2arrS
Assay: as above
Settings: both partners purified

Row | Binder | binding result
10 | B9 | binds

Biological target: T4, GST‐Amph4T1
Assay: as above
Settings: both partners purified

Row | Binder | binding result
11 | B7 | binds
12 | B8 | binds
13 | B10 | binds
14 | B9 | binds

Biological target: T5, GST‐AmphCBM
Assay: as above
Settings: both partners purified

Row | Binder | binding result
15 | B7 | binds
16 | B8 | binds
17 | B10 | binds
